Laboratory results taken from publication PMC10397247.
Blank lines part the entries; values can stand above or below the binder they belong to.

What was measured:
4H909-AA = molecular target: T1, 4H909-AA; assay: two-hybrid library CCmax; details: mean of both orientations;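 further: natural log of median RNA to DNA barcode read ratio; higher means stronger binding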
T1 chain: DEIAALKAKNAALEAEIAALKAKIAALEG

4H94-AA = molecular target: T2, 4H94-AA; assay: two-hybrid library CCmax; details: mean of both orientations;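 further: natural log of median RNA to DNA barcode read ratio; higher means stronger binding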
T2 chain: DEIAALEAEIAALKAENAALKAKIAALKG

4H930-AA = molecular target: T3, 4H930-AA; assay: two-hybrid library CCmax; details: mean of both orientations;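 further: natural log of median RNA to DNA barcode read ratio; higher means stronger binding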
T3 chain: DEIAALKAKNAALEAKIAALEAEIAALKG

4H745-AA = molecular target: T4, 4H745-AA; assay: two-hybrid library CCmax; details: mean of both orientations;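 further: natural log of median RNA to DNA barcode read ratio; higher means stronger binding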
T4 chain: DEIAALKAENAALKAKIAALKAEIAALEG

4H3697-AA = molecular target: T5, 4H3697-AA; assay: two-hybrid library CCmax; details: mean of both orientations
T5 chain: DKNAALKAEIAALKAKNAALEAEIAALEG

4H3410-AA = molecular target: T6, 4H3410-AA; assay: two-hybrid library CCmax; details: mean of both orientations
T6 chain: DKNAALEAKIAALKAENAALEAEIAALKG

4H458-AA = molecular target: T7, 4H458-AA; assay: two-hybrid library CCmax; details: mean of both orientations
T7 chain: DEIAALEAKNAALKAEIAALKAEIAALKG

4H3590-AA = molecular target: T8, 4H3590-AA; assay: two-hybrid library CCmax; details: mean of both orientations
T8 chain: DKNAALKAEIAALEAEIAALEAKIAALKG

4H891-AA = molecular target: T9, 4H891-AA; assay: two-hybrid library CCmax; details: mean of both orientations
T9 chain: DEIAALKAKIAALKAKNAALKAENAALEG

4H485-AA = molecular target: T10, 4H485-AA; assay: two-hybrid library CCmax; details: mean of both orientations
T10 chain: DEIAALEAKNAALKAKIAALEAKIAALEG

4H629-AA = molecular target: T11, 4H629-AA; assay: two-hybrid library CCmax; details: mean of both orientations
T11 chain: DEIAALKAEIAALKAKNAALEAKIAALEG

4H3865-AA = molecular target: T12, 4H3865-AA; assay: two-hybrid library CCmax; details: mean of both orientations
T12 chain: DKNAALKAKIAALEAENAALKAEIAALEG

4H536-AA = molecular target: T13, 4H536-AA; assay: two-hybrid library CCmax; details: mean of both orientations
T13 chain: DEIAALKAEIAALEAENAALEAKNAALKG

4H3753-AA = molecular target: T14, 4H3753-AA; assay: two-hybrid library CCmax; details: mean of both orientations
T14 chain: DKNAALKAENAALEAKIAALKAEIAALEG

4H710-AA = molecular target: T15, 4H710-AA; assay: two-hybrid library CCmax; details: mean of both orientations
T15 chain: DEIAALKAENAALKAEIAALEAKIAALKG

4H3395-AA = molecular target: T16, 4H3395-AA; assay: two-hybrid library CCmax; details: mean of both orientations
T16 chain: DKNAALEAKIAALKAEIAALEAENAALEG

4H850-AA = molecular target: T17, 4H850-AA; assay: two-hybrid library CCmax; details: mean of both orientations
T17 chain: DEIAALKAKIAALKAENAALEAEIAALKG

4H570-AA = molecular target: T18, 4H570-AA; assay: two-hybrid library CCmax; details: mean of both orientations
T18 chain: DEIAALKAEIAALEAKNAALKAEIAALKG

4H3165-AA = molecular target: T19, 4H3165-AA; assay: two-hybrid library CCmax; details: mean of both orientations
T19 chain: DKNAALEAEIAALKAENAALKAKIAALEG

4H3381-AA = molecular target: T20, 4H3381-AA; assay: two-hybrid library CCmax; details: mean of both orientations
T20 chain: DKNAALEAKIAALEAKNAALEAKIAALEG

4H797-AA = molecular target: T21, 4H797-AA; assay: two-hybrid library CCmax; details: mean of both orientations
T21 chain: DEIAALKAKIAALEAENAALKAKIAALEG

4H3130-AA = molecular target: T22, 4H3130-AA; assay: two-hybrid library CCmax
T22 chain: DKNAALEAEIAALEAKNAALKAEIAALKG

4H906-bN = molecular target: T23, 4H906-bN; assay: two-hybrid library CCNG1
T23 chain: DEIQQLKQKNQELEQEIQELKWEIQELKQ

4H850-bN = molecular target: T24, 4H850-bN; assay: two-hybrid library CCNG1
T24 chain: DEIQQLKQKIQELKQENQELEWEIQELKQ

4H3921-AA = molecular target: T25, 4H3921-AA; assay: two-hybrid library CCmax; details: mean of both orientations
T25 chain: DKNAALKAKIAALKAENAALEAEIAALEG

4H429-AA = molecular target: T26, 4H429-AA; assay: two-hybrid library CCmax; details: mean of both orientations
T26 chain: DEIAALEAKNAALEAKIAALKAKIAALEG

4H906-AA = molecular target: T27, 4H906-AA; assay: two-hybrid library CCmax; details: mean of both orientations
T27 chain: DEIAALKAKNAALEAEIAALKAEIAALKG

4H993-AA = molecular target: T28, 4H993-AA; assay: two-hybrid library CCmax; details: mean of both orientations
T28 chain: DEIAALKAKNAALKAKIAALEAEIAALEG

4H717-AA = molecular target: T29, 4H717-AA; assay: two-hybrid library CCmax; details: mean of both orientations
T29 chain: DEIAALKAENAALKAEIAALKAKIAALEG

4H3627-AA = molecular target: T30, 4H3627-AA; assay: two-hybrid library CCmax; details: mean of both orientations
T30 chain: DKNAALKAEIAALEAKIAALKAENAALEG

4H794-AA = molecular target: T31, 4H794-AA; assay: two-hybrid library CCmax; details: mean of both orientations
T31 chain: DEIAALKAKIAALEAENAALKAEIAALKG

4H3844-AA = molecular target: T32, 4H3844-AA; assay: two-hybrid library CCmax; details: mean of both orientations
T32 chain: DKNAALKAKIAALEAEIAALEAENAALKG

4H3343-AA = molecular target: T33, 4H3343-AA; assay: two-hybrid library CCmax; details: mean of both orientations
T33 chain: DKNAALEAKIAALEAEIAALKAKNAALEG

4H3655-AA = molecular target: T34, 4H3655-AA; assay: two-hybrid library CCmax; details: mean of both orientations
T34 chain: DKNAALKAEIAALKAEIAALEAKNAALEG

4H3606-AA = molecular target: T35, 4H3606-AA; assay: two-hybrid library CCmax; details: mean of both orientations
T35 chain: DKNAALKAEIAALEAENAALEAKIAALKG

4H48-AA = molecular target: T36, 4H48-AA; assay: two-hybrid library CCmax; details: mean of both orientations
T36 chain: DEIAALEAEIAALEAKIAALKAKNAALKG

4H3427-AA = molecular target: T37, 4H3427-AA; assay: two-hybrid library CCmax; details: mean of both orientations
T37 chain: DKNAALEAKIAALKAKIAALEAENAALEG

4H566-AA = molecular target: T38, 4H566-AA; assay: two-hybrid library CCmax; details: mean of both orientations
T38 chain: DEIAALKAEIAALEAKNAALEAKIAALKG

4H454-AA = molecular target: T39, 4H454-AA; assay: two-hybrid library CCmax; details: mean of both orientations
T39 chain: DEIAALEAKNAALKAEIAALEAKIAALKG

4H342-AA = molecular target: T40, 4H342-AA; assay: two-hybrid library CCmax; details: mean of both orientations
T40 chain: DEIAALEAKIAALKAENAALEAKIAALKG

4H335-AA = molecular target: T41, 4H335-AA; assay: two-hybrid library CCmax; details: mean of both orientations
T41 chain: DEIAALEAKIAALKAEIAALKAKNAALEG

4H881-AA = molecular target: T42, 4H881-AA; assay: two-hybrid library CCmax; details: mean of both orientations
T42 chain: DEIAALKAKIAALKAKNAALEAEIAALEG

4H605-AA = molecular target: T43, 4H605-AA; assay: two-hybrid library CCmax; details: mean of both orientations
T43 chain: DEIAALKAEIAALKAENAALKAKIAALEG

4H317-AA = molecular target: T44, 4H317-AA; assay: two-hybrid library CCmax
T44 chain: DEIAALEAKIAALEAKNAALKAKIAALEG

4H678-AA = molecular target: T45, 4H678-AA; assay: two-hybrid library CCmax; details: mean of both orientations
T45 chain: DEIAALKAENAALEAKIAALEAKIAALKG

4H780-AA = molecular target: T46, 4H780-AA; assay: two-hybrid library CCmax; details: mean of both orientations
T46 chain: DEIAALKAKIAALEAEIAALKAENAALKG

4H63-AA = molecular target: T47, 4H63-AA; assay: two-hybrid library CCmax; details: mean of both orientations
T47 chain: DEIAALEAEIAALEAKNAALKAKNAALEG

4H483-AA = molecular target: T48, 4H483-AA; assay: two-hybrid library CCmax
T48 chain: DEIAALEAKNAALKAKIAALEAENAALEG

APC9291-AA = molecular target: T49, APC9291-AA; assay: two-hybrid library CCmax
T49 chain: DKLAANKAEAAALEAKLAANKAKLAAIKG

APC9806-AA = molecular target: T50, APC9806-AA; assay: two-hybrid library CCmax; details: mean of both orientations
T50 chain: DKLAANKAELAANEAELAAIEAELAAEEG

Binder: DEIAALEAKIAALEAKNAALKAKIAALEG [4H317-AA]
interaction score (4H3921-AA): 1.81
interaction score (4H429-AA): -0.459
interaction score (4H906-AA): 0.51
interaction score (4H993-AA): -1.11
interaction score (4H717-AA): -1.63
interaction score (4H3627-AA): -0.771
interaction score (4H794-AA): 0.104
interaction score (4H3844-AA): -0.686
interaction score (4H3343-AA): -1.56
interaction score (4H3655-AA): -0.949
interaction score (4H3606-AA): 2.23
interaction score (4H48-AA): 0.228
interaction score (4H3427-AA): 1.23
interaction score (4H566-AA): 1.74
interaction score (4H454-AA): -1.04
interaction score (4H342-AA): 2.15
interaction score (4H335-AA): -0.361
interaction score (4H881-AA): 1.38
interaction score (4H605-AA): -0.441
interaction score (4H317-AA): 1.28
interaction score (4H678-AA): 0.755
interaction score (4H780-AA): -1.52

Binder: DEIAALEAKNAALKAKIAALEAENAALEG [4H483-AA]
interaction score (4H63-AA): -1.11
interaction score (4H483-AA): -2.02

More lines, now with the values ahead:

interaction score (4H909-AA): -1.06
interaction score (4H94-AA): -0.202
interaction score (4H930-AA): -1.73
interaction score (4H745-AA): -1.54
interaction score (4H3697-AA): -0.0288
interaction score (4H3410-AA): 2.07
interaction score (4H458-AA): -3.23
interaction score (4H3590-AA): 0.624
interaction score (4H891-AA): -1.99
interaction score (4H485-AA): -1.58
interaction score (4H629-AA): -1.31
interaction score (4H3865-AA): 1.11
interaction score (4H536-AA): -0.902
interaction score (4H3753-AA): -0.789
interaction score (4H710-AA): -1.31
interaction score (4H3395-AA): -1.29
interaction score (4H850-AA): 2.04
interaction score (4H570-AA): -0.712
interaction score (4H3165-AA): -1.3
interaction score (4H3381-AA): -1.07
interaction score (4H797-AA): -1.21
interaction score (4H3130-AA): 0.118
Binder: DKNAALEAEIAALEAKNAALKAEIAALKG [4H3130-AA]

interaction score (4H906-bN): -0.386
interaction score (4H850-bN): 0.186
Binder: DEIQQLKQKIQELKQENQELEWEIQELKQ [4H850-bN]

interaction score (APC9291-AA): -1.78
interaction score (APC9806-AA): -1.78
Binder: DKLAANKAEAAALEAKLAANKAKLAAIKG [APC9291-AA]
